PMC3086336
Positions count from the first letter of the chain named. In names and notes the source's numbering stands.

B1: Spt6(1247–1451) (domain or fragment)
chain: AKRTHRVINHPYYFPFNGRQAEDYLRSKERGEFVIRQSSRGDDHLVITWKLDKDLFQHIDIQELEKENPLALGKVLIVDNQKYNDLDQIIVEYLQNKVRLLNEMTSSEKFKSGTKKDVVKFIEDYSRVNPNKSVYYFSLNHDNPGWFYLMFKINANSKLYTWNVKLTNTGYFLVNYNYPSVIQLCNGFKTLLKSNSSKNRMNNYR
B2: R1282A/S1284A Spt6(1247–1451) (domain or fragment)
chain: B1 chain with R36A, S38A

Experiments:
Test in all cases: fluorescence polarisation
[1] = molecular target: pSer2 RNAPII CTD di-heptad repeat peptide
[2] = molecular target: pSer5 RNAPII CTD di-heptad repeat peptide
[3] = molecular target: unphosphorylated form of the RNAPII-CTD (peptide)
[4] = molecular target: pSer(2,5) RNAPII CTD di-heptad repeat peptide
[5] = molecular target: pTyr1 RNAPII CTD di-heptad repeat peptide

Binder | Kd [1] [µM] | Kd [2] [µM] | Kd [3] [µM] | Kd [4] [µM] | fold decrease of binding against WT Spt6(1247–1451) [1] [fold] | fold decrease of binding against WT Spt6(1247–1451) [5] [fold] | fold decrease of binding against WT Spt6(1247–1451) [2] [fold]
B1 | 197 | 245 | > 1000 | 23 |  |  | 
B2 |  |  |  |  | 1.2 | 2.4 | 1.4
